B1: Azoarcus group I ribozyme (parent)
chain: GUGCCUUGCGCCGGGAAACCACGCAAGGGAUGGUGUCAAAUUCGGCGAAACCUAAGCGCCCGCCCGGGCGUAUGGCAACGCCGAGCCAAGCUUCGGCGCCUGCGCCGAUGAAGGUGUAGAGACUAGACGGCACCCACCUAAGGCAAACGCUAUGGUGAAGGCAUAGUCCAGGGAGUGGCGAAAGUCACACAAACCGG

Variants of: B1
Test: reverse-splicing fitness (ratio to wild type); higher = more active; in vitro selection; Mg2+ level not given
In short: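 An in vitro group I ribozyme library with randomized positions was T7-transcribed and gel-purified. In triplicate, 10 pmol RNA in EPPS pH 7.5 was reacted with 50 pmoles of a 30-nt RNA substrate for 1 h at 37 °C across several added MgCl2 levels (1–48 mM), then stopped with EDTA. Products were reverse transcribed from a substrate-complementary primer, PCR-amplified and sequenced (HiSeq 4000). Fitness is a variant's read proportion after selection over that before, normalised to wild type.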

In order of falling reverse-splicing fitness:
1. A120U  0.858
2. A120G  0.549
3. A120C A145U C169U  0.441
4. A120G A145U C169G U176C  0.264
5. A120G C169G U176C  0.261
6. A120G C169G U176A  0.209
7. A120G A145U C169G U176A  0.206
8. A120C C150A U176C  0.195
9. A120G C169A U176C  0.189
10. A120C A145U C169U U176C  0.187
11. A120C C150A U176A  0.184
12. A120G A145G C150U C169U U176C  0.175
13. A120G C150U C169U U176C  0.159
14. A120G A145G C150U C169A U176C  0.157
15. A120G A145G C150U C169U U176A  0.145
16. A120C A145U C169U U176A  0.143
17. A120G A145G C150A C169G  0.141
18. A120G C150U C169U U176A  0.136
19. A120G C150U C169A U176C  0.126
20. A120G C169A U176A  0.112
21. A120G A145G C150A C169U  0.107
22. A120G A145U C150G C169G  0.0994
23. A120G A145G C150U C169A U176A  0.0867
24. A120G A145U C150A C169G  0.0841
25. A120G A145G C150A C169A  0.0788
26. A120G C150U C169A U176A  0.0776
27. A120C C150A U176G  0.0764
28. A120G A145U C150G C169U  0.0748
29. A120G C150G C169G  0.0731
30. A120G A145U C150A C169U  0.0677
31. A120G C150A C169U U176A  0.0635
32. A120G C150A C169U U176C  0.0621
33. A120G C150G C169U  0.0614
34. A120G A145G C150G U176C  0.0592
35. A120G A145G C150A C169A U176C  0.0558
36. A120G A145G C150G C169U U176C  0.0556
37. A120G A145U C150G C169A  0.0517
38. A120G A145U C150G U176C  0.0502
39. A120G A145U C150A C169A  0.0459
40. A120G C150G C169A  0.0439
41. A120G A145G C150G U176A  0.0423
42. A120G C150A C169A U176C  0.0393
43. A120G C150A C169A U176A  0.0363
44. A120G A145U C150G U176A  0.0351
45. A120G A145U C150A C169A U176C  0.035
46. A120G A145G C150A C169A U176A  0.0345
47. A120G A145G C150G C169A U176C  0.0319
48. A120G A145C C150A U176C  0.0279
49. A120G A145C C150A U176A  0.027
50. A120G A145G C150G C169U U176A  0.0263
51. A120G A145C C150G C169G U176A  0.0244
52. A120G A145U C150A C169A U176A  0.0229
53. A120C C150U C169A U176A  0.0206
54. A120C A145U C169U U176G  0.0184
55. A120G A145G C150G C169A U176A  0.0181
56. A120C C150U C169A U176C  0.017
57. A120C C169G U176C  0.0166
58. A120G A145C C150A C169A U176C  0.0164
59. A120G A145C C150A C169A U176A  0.0162
60. A120C C169G U176A  0.016
61. A120G A145U C169G U176G  0.0156
62. A120G C169G U176G  0.0117
63. A120G A145C C150G C169G U176C  0.0117
64. A120G C150U C169U U176G  0.011
65. A120G A145G C150U C169U U176G  0.0096
66. A120G C150A C169U U176G  0.00851
67. A120G A145G C150G U176G  0.00816
68. A120G A145G C150G C169U U176G  0.00777
69. A120G A145G C150G C169A U176G  0.00777
70. A120G A145G C150U C169A U176G  0.0072
71. A120G C169A U176G  0.00677
72. A120G C150U C169A U176G  0.00612
73. A120G A145U C150G U176G  0.00612
74. A120G A145C C150A U176G  0.00611
75. A120G A145G C150A C169A U176G  0.00587
76. A120G C150A C169A U176G  0.00569
77. A120G A145U C150A C169A U176G  0.00487
78. A120G A145C C150A C169A U176G  0.00472
79. A120G A145C C150G C169G U176G  0.00456
80. A120C C150U C169A U176G  0.00428
81. A120C C169G U176G  0.0039
82. A120U A145C C150A C169A U176A  0.00216
83. A120U A145C C150A C169A U176G  0.00203
84. A120U A145C C150A C169A U176C  0.00175

From the RNAGym collection of RNA variant scans (doi:10.1093/molbev/msab373)
